Drawing on publication PMC9923667, this text covers stoichiometry N for one substance.

This assay has as its target HPIV3 fusion (F) protein stabilized in the prefusion conformation (HPIV3 preF) (human parainfluenza virus type 3) (UniProt P06828). Description: cryo-EM structure.

Broadly, the stoichiometry N is a count of units in the complex or per binding partner. As to “HPIV3 fusion (F) protein stabilized in the prefusion conformation (HPIV3 preF) (from UniProt P06828 19-481) (natural protein)”, the stoichiometry N turned out to be 3.
